The results in this text go back to US20250236667A1, “ANTIBODIES TO MUTANT CALRETICULIN AND USES THEREOF” (CENTRAL ADELAIDE LOCAL HEALTH NETWORK INC, priority 2021, published 2025).

Data set [1] is described as follows: Pharmacokinetic measurement of serum level of 4D7. It counts as in vivo, mice. The conditions noted are these: 12.5 mg/kg intraperitoneal injection; 48 hours post injection. As for the experimental part: A. Illustration showing bone marrow NSG engraftment model with TPO-independent TF-1 TpoR CALR^del61 cells treated with 4D7 or IgG control twice weekly, starting 7 days after engraftment via intraperitoneal injection and final measurements taken from euthanized mice. B. Pharmacokinetic measurements of serum level of 4D7 in mice after intraperitoneal injection at 1, 24, 48, 72 and 110 hours since administration. C. Percentage of human CD33+myeloid cells measured in peripheral blood at 3 weeks post-tail vein engraftment (n=5 mice per treatment). D. Kaplan-Meier survival curve of bone marrow engraftment model showing improved survival of mice treated with 4D7 compared with IgG control commencing I week after tail vein injection (n=5 mice per treatment). […]
All procedures were approved by the South Australian Health and Medical Research Animal Ethics Committee (Protocol SAM21-018). […] Tail vein bleeds were taken at 3 weeks and analysed via flow cytometry to determine human leukaemia content in the peripheral blood. […] Mice were monitored daily and euthanized once clinical symptoms were observed. […] Additionally, bone marrow from both femurs, spine and spleens were analysed for leukemic content as detailed above. […] Tumour progression was assessed through caliper measurements every 2 days. […]

The next data set deals with T1, mutant CALR protein (Homo sapiens, UniProt P27797).
T1 construct: expressed in transfected cells; host or cells: TF-1 TpoR cells, pCX4-IRES eGFP vector
T1 sequence (P27797 with tags, fused parts or gaps limits assumed): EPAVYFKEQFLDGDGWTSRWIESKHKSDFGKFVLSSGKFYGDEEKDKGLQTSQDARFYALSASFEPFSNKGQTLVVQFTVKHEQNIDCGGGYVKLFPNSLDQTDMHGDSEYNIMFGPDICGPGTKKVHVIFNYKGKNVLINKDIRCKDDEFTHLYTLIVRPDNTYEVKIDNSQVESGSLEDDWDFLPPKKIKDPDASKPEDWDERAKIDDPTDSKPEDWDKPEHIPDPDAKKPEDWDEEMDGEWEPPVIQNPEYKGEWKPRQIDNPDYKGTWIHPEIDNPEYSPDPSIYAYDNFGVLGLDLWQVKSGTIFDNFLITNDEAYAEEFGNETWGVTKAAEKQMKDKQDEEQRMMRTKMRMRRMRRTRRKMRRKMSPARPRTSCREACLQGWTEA
Briefly: Western blot detection of mutant CALR by hybridoma clones. The class given is binding. The procedure:
Rats were immunised with a CALR mutant peptide “MMRTKMRMRRMRRT RRKMRRKMSPARPRTS” coupled to KLH, this peptide sequence is unique to CALR mutant. Serum from the immunised rats was screened by enzyme linked immunoassay, to verify a strong titre to the peptide immunogen, prior to performing the hybridoma fusion. Immunised rat spleen cells were harvested and a spleen single cell suspension was combined with Sp2/O myeloma cell line. The cell mixture was treated with polyethylene glycol plus DMEM prior to been plated in 96 well flat bottom plates. The expanding hybridomas were screened initially by ELISA and the positive clones were further verified by western blot, for reactivity to the expressed CALR mutant protein before subcloning the hybridomas for antibody production.
For immunoblotting of total lysates, cells were lysed in NP40 buffer containing 150 mM NaCl, 50 mM Tris pH 7.6, 1% NP-40, supplemented with protease inhibitors (Complete, Roche) and phosphatase inhibitor cocktails, and boiled for 5 minutes after addition of sample buffer (60 mM Tris pH 6.8, 5% glycerol, 1% SDS, 2% β-mercaptoethanol, 0.02% bromophenol blue) before SDS gel electrophoresis followed by Western blotting (Tvorogov et al, 2010). Primary antibodies against pERK (#9101), pSTAT5 (#9359), ERK (#4695), Actin (#4970), Caspase 3 (#14220), wildtype CALR (#12238) were purchased from Cell Signalling. Primary antibodies against pSTATI (#612233), pSTAT3 (#612357), STATI (#610186), STAT3 (#610190), STAT5 (#610192) and Anti-phosphotyrosine 4G10 (#610012) were purchased from BD Biosciences. Mutant CALR monoclonal antibody CAL2 was purchased from Dianova (Hamburg, Germany). Immunopreciptation of TpoR was performed in standard NP40 lysis buffer with additional 50 mM iodoacetamide to avoid any de novo disulfide bond formation post lysis. To reduce IgG background during immunoprecipitation anti-FLAG conjugated to magnetic beads (Sigma, #M8823) were used. For this same reason, anti-FLAG-HRP conjugated antibodies (Sigma, #A8592) were used in western blotting.
A general note: In western blotting, separated proteins are transferred to a membrane and probed.

Data set [2] has as its system TF-1 TpoR CALR^del52 cells. Briefly: Cell proliferation, trypan blue exclusion. It counts as cell-based, human. The following applies: over 5 days at 2, 10 and 20 μg/mL. As for the experimental part: (§1) In brief, cells were seeded at 5×10^4/mL in standard growth media, with any necessary cytokines, and the addition of 20 μg/mL IgG or 2, 10 or 20 μg/mL 4D7. Cells were seeded in triplicate and each well was counted in triplicate every 24 hours for 5 days using trypan blue exclusion.

Data set [3] has as its system TF-1 cells expressing TpoR alone (endogenous wild type CALR). Nature of the data set: Cell proliferation, trypan blue exclusion. The class given is cell-based, human. The conditions noted are these: in presence of TPO; 2, 10 or 20 μg/mL. As for the experimental part:
as §1

B1: 4D7: rat monoclonal IgG2a antibody against the mutant CALR neoepitope; VH SEQ ID NO: 5, VL SEQ ID NO: 7 (antibody, listed as Rattus rattus, V domains shown)
VH: QVQLQQSGAELAKPGSSVKISCKASGYTFTNYDMSWIKQRPGQALEWIGAINPGNGVTDYNEKFRGKATLTVDKSSSTAFMQLSSLTPEDTAVYHCAREYRDNYGYFDYWGQGVMVTVSS
VL: DIVLTQTPVSLSVTLGDQASISCRSSQSLEYSDGYTYLDWFLQKPGQSPQLLIYEVSSRFSGVPDRFIGRGSGTDFTLKISRVEPEDLGVYYCFQATHDPFTFGSGTKLEIK
For B1, the serum concentration result in data set [1] is reported as “more than 100 μg/mL”. Besides, in the data set with mutant CALR protein (3 hybridoma screens, FIG. 6A), the “reactivity to the peptide and CALR mutant protein among hybridoma clones” value is on record as “strongest reactivity”. In the data set with mutant CALR protein (TF-1 TpoR CALR^del61 vs CALR wild type TF-1 cells), the “detection of mutant CALR protein by Western blot” value is listed as “able to detect mutant CALR protein in CALR^del61 cells but not in CALR wild type TF-1 cells”. Further, the TPO-independent cell growth result in data set [2] is given as “blockade of TPO-independent cell growth”. Further, the inhibition of proliferation entry in data set [3] is on record as “no inhibition”.
